test: soluble on expression in E. coli; label from the status in PepcDB or PDB records

For “MKQLATPFQEYSQKYENIRLERDGGVLLVTVHTEGKSLVWTSTAHDELAYCFHDIACDRENKVVILTGTGPSFCNEIDFTSFNLGTPHDWDEIIFEGQRLLNNLLSIEVPVIAAVNGPVTNHPEIPVMSDIVLAAESATFQDGPHFPSGIVPGDGAHVVWPHVLGSNRGRYFLLTGQELDARTALDYGAVNEVLSEQELLPRAWELARGIAEKPLLARRYARKVLTRQLRRVMEADLSLGLAHEALAAIDLGMESEQ”, which “soluble on expression in E. coli” value is on record?
Its value is “soluble”.

For “MKQLSFLPGEMTPQDRRLIQRALRALDRHLHEPGVAFTSTHAVREWLRLHMAALEREEFRVLYLDNQNQLIAHETLFTGTINRTEVHPREVVKRALHFNAAAVILAHNHPSGETTPSQADKTLTQRLVQVLQLVDIRVPDHLIVGGRQIYSFAEHGLL”, which “soluble on expression in E. coli” value is on record?
The value was “not soluble”.

Which “soluble on expression in E. coli” value does the source give for “MKQPFTQAIENAELAIRNADERNDIFSELLEGLGVGPVAGEVLLGGLNASPKLMQHAEQELIEEVQRRRQQQHQLQGVQGKRRKRPTMMRGMVILEHHHHHH” here?
Its value is “not soluble”.

For “MKRALGVSVYPDHSDINQDKAYLKKASECGFTRIFMSMLEVTDGKEAVQKKFKELISYAKNLGFETILDVVPSIFDELEISYDDLTFFSELGADGIRLDTGFDGNKEAMLTFNPFGVAIELNMSNDVAYLDNILTYEANRPFLYGCHNFYPQAGTALPYDFFEKCSIRFKKEGIRTAAFISSQVGEIGPWDVNDGLPTLEMHRQLPVTVQAKHLFATNLIDDVVIGNAYASNEELEALGQLNRYQTELTIVFEEATSEIEKEIVTKNQHFRRGDITQQMIRSTEVRKKYKNEVNPPHDNQAMLQPGDVVVGNDAFGKYKNELQVVLEPHQDSRKNRVGRIIEEELVLLEFIKPWTKFRFIEK”, which “soluble on expression in E. coli” value is on record?
The value was “not soluble”.

For “MKRASVWMLLCLFFMLSGCANPSFPPVVDSLSVVISLDVKAETVTFLNAKNGSKIARWNINEPFQGGALSPDGRTLLLYGRDLDRVYRYDLAGGKPLSEWKTGNGIVSAAPSPDGRTWFFGDSTHHAVRVVSRGGKEIARLSVGRSPMTLLVNRQGTELYAIDFQDGRAFVIDASRLRVIRSFSVPKFALGGLMRERRGELWVGGHGSGNKVEKNIHVYSLRDGRLLRTIAAPVMPVDFVETGRGVFVLSHGSNTVYQFLPSGKRLNSVLVGANPFAMEAAGSRLYIASYDSDEIIVVDEATLRPLARWKTGDGPLQLFIREGRT”, which “soluble on expression in E. coli” value is on record?
The value was “not soluble”.

With “MKREQILSLIAEIDDLLNALNMVVKEIEEKKREFSDKEPDQFILRALGSLLHDFYTIIEDIFELISSEMNGVRLDSFDWHKRLLNKMTLEIPGLRPAVISKRLKEMLDEYLRFRHVFRNVYGYLLQWERMKPLLEKAGAVYERFEEEIERFKDFLRELAEKM” as the sequence, how does the “soluble on expression in E. coli” value read?
Its value is “not soluble”.

With “MKRFFLFILPVLLVITACKAPEEIVLPDKNLNVADRTIVYKKEPYTGKLVLPKSPRGNEGYMYVKDGHLEGNAEIKNEKDGFLLKYNINAGKFQGELLYKSGDGQLTLNVDKGVILSMQMSNDKEKTEYNFTFTDGLANGVFRHENKKNTAEIVFTDGMAKIENDGNIDVEAKFSINQNTWMITMESFVDGKSYSKTEKFLGINLETIEDIVFSSIEDYKTQK” as the sequence, how does the “soluble on expression in E. coli” value read?
Its value is “not soluble”.

Which “soluble on expression in E. coli” value does the source give for “MKRFGRFAGIALVLVVAALTARSCFSHDLIVRLSDRKEISFKQMMGDLRKVAVIYVGEVHDNPDHHVLQLRIIRGLHRAGVPLAIGMEMFTAGSQQELDRWVAGQTGTAAFQRIYRREWNLPWSLYGDILLFARDKRIPLIGLNVPRDITRKVGREGFASLTEDERRKLPPNITCDVDESYMAMIHRSYSSHGLSANTFRNFCEAQMLWNKSMAYHMVEYLRKNPGRTVVVITGGGHAIRGGMPVQVDRERPGLSSRVVLPDPVVRNGRIKAEEADYLWLSHLEHHHHHH” here?
Its value is “not soluble”.

With “MKRFLIITILALSVFSLALTLDDAYRLANITQRKLIMMFSSPTCYYCNLFKKEVFPKEDFQEILIPNFVFVELYATDEKTTLFAKEVLGEESVSYRDLFAGFGVRGTPTFFFFKGKEGLGYLPGYVDKDNFIKILKYVAQELKEDFQTYLKKDDPFVGEPLIIEIFKEDADFVLEKDENAVKVDTVPNEVRRDRIYVTDSPDVAKTLQEKGALRVLLAK” as the sequence, how does the “soluble on expression in E. coli” value read?
The value was “not soluble”.

Source: the DeepSol protein solubility set
